Results from patent US20240076361A1.

Biological target: Tau from human Alzheimer's Disease brain lysate (Braak stage VI) (human), P10636
Assay: ELISA on Tau captured from AD brain lysate, curve without blocking peptide
Details: remark: other sources report otherwise

Chain of Tau from human Alzheimer's Disease brain lysate (Braak stage VI) (human), P10636 (P10636 other isoform, or with tags, fused parts or gaps limits assumed): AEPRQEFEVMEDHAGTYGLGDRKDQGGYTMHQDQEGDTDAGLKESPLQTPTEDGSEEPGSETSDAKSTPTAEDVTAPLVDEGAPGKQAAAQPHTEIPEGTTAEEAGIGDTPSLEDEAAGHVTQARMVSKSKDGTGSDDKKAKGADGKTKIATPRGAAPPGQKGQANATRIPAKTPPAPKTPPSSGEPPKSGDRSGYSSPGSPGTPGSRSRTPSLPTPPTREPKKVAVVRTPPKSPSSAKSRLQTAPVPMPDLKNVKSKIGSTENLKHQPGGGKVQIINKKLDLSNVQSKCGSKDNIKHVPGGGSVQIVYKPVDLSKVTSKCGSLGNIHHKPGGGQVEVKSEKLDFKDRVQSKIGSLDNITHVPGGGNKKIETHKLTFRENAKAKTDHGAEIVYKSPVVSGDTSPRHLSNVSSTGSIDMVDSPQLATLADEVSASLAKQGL

EC50 (read off the curve): 20 pM
B1: PT3 comparator antibody (antibody)
chain 1: EVKLVESGGDLVKPGGSLKLSCAASGFTFSSYAMSWVRQNPEKRLEWVASISKGGNTYYPNSVKGRFTISRDNARNILYLQMSSLRSEDTALYYCARGWGDYGWFAYWGQVTLVTVSA
chain 2: DIKMTQSPSSMYASLGERVTITCKASQDINRYLNWFQQKPGKSPKTLIYRANRLLDGVPSRFSGSGSGQDYSLTISSLDYEDMGIYYCLQYDEFPLTFGDGTKLELK
modifications: here or on the partner: native phosphorylation and other post-translational modifications, not defined
